Source: paper PMC5629025 (2017)

B1: FLAG-, HA-tagged wild-type Bag-1L [human] / androgen receptor, endogenous in LNCaP cells [human (endogenous in LNCaP)] (parent complex)
chain 1: MAQRGGARRPRGDRERLGSRLRALRPGREPRQSEPPAQRGPPPSGRPPARSTASGHDRPTRGAAAGARRPRMKKKTRRRSTRSEELTRSEELTLSEEATWSEEATQSEEATQGEEMNRSQEVTRDEESTRSEEVTREEMAAAGLTVTVTHSNEKHDLHVTSQQGSSEPVVQDLAQVVEEVIGVPQSFQKLIFKGKSLKEMETPLSALGIQDGCRVMLIGKKNSPQEEVELKKLKHLEKSVEKIADQLEELNKELTGIQQGFLPKDLQAEALCKLDRRVKATIEQFMKILEEIDTLILPENFKDSRLKRKGLVKKVQAFLAECDTVEQNICQETERLQSTNFALAE
chain 2: MEVQLGLGRVYPRPPSKTYRGAFQNLFQSVREVIQNPGPRHPEAASAAPPGASLLLLQQQQQQQQQQQQQQQQQQQQQQQETSPRQQQQQQGEDGSPQAHRRGPTGYLVLDEEQQPSQPQSALECHPERGCVPEPGAAVAASKGLPQQLPAPPDEDDSAAPSTLSLLGPTFPGLSSCSADLKDILSEASTMQLLQQQQQEAVSEGSSSGRAREASGAPTSSKDNYLGGTSTISDNAKELCKAVSVSMGLGVEALEHLSPGEQLRGDCMYAPLLGVPPAVRPTPCAPLAECKGSLLDDSAGKSTEDTAEYSPFKGGYTKGLEGESLGCSGSAAAGSSGTLELPSTLSLYKSGALDEAAAYQSRDYYNFPLALAGPPPPPPPPHPHARIKLENPLDYGSAWAAAAAQCRYGDLASLHGAGAAGPGSGSPSAAASSSWHTLFTAEEGQLYGPCGGGGGGGGGGGGGGGGGGGGGGGEAGAVAPYGYTRPPQGLAGQESDFTAPDVWYPGGMVSRVPYPSPTCVKSEMGPWMDSYSGPYGDMRLETARDHVLPIDYYFPPQKTCLICGDEASGCHYGALTCGSCKVFFKRAAEGKQKYLCASRNDCTIDKFRRKNCPSCRLRKCYEAGMTLGARKLKKLGNLKLQEEGEASSTTSPTEETTQKLTVSHIEGYECQPIFLNVLEAIEPGVVCAGHDNNQPDSFAALLSSLNELGERQLVHVVKWAKALPGFRNLHVDDQMAVIQYSWMGLMVFAMGWRSFTNVNSRMLYFAPDLVFNEYRMHKSRMYSQCVRMRHLSQEFGWLQITPQEFLCMKALLLFSIIPVDGLKNQKFFDELRMNYIKELDRIIACKRKNPTSCSRRFYQLTKLLDSVQPIARELHQFTFDLLIKSHMVSVDFPEMMAEIISVQVPKILSGKVKPIYFHTQ

Variants of: B1
Test: SILAC RIME; LNCaP cells stably expressing FLAG-HA-tagged wild-type or CMut Bag-1L; parent: 21; read off a plot

Row | Variant | response [log2 intensity]
1 | chain 1 MAQRGGARRPRGDRERLGSRLRALRPGREPRQSEPPAQRGPPPSGRPPARSTASGHDRPTRGAAAGARRPRMKKKTRRRSTRSEELTRSEELTLSEEATWSEEATQSEEATQGEEMNRSQEVTRDEESTRSEEVTREEMAAAGLTVTVTHSNEKHDLHVTSQQGSSEPVVQDLAQVVEEVIGVPQSFQKLIFKGKSLKEMETPLSALGIQDGCRVMLIGKKNSPQEEVELAALKHLEKSVEKIADQLEELNKELTGIQQGFLPKDLQAEALCKLDRRVAATIEQFMKILEEIDTLILPENFKDSRLKRKGLVKKVQAFLAECDTVEQNICQETERLQSTNFALAE [chain 1 K231A, chain 1 K232A, chain 1 K279A] | ~19
